The text below walks through data of PMC7335187, “Super-assembly of ER-phagy receptor Atg40 induces local ER remodeling at contacts with forming autophagosomal membranes” (Nature Communications, 2020).

Data set [1] addresses T1, GABARAP WT (human GABARAP 1-116) (human, UniProt O95166 1-116). The data set is described as follows: ITC; peptide in the syringe (0.5 mM) titrated into 200 µl of the Atg8 homologue in the cell at a 10 times lower concentration; MicroCal iTC200, 25 °C, stirring at 1000 rpm; single-site binding model; N fixed to 1.0 when the fitting was not convergent due to weak interaction; errors are fitting errors. The settings on record: both partners purified. For orientation: In ITC the heat of successive injections is recorded.

The target in data set [2] is T2, LC3A WT (UniProt Q9H492 1-121). The description is as above. Particulars: both partners purified.
The target of data set [3] is T3, LC3B WT (rat LC3B 1-120) (rat, UniProt Q62625 1-120). Described as above. Particulars: both partners purified.
Data set [4] concerns the target T4, GABARAPL2 WT (UniProt P60520 1-117). Described as above. Particulars: both partners purified.
Data set [5] addresses T5, GABARAPL1 WT (UniProt Q9H0R8 1-117). The data set is described as above. The settings on record: both partners purified.
For data set [6], the target named is T6, Atg8 K26P (in the crystallised Atg40^237–252-Atg8 fusion) (S. cerevisiae, UniProt P38182 1-116, K26P).
T6 construct: Atg8, S. cerevisiae (ScAtg8), residues 1-116; K26P introduced for stabilizing Atg8; the GST of the fusion stood before m15 and was cleaved; source: E. coli BL21 (DE3), purified (GST-accept resin, HRV 3C protease, SEC), on one chain with m15
T6 sequence (looked up): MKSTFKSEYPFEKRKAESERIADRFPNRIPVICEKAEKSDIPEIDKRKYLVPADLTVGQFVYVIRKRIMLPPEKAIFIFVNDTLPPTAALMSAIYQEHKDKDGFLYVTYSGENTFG
The experiment in a line: crystal structure; the AIM sequence fused to the N terminus of Atg8 K26P or GABARAP F3S V4T on one chain; sitting-drop vapor diffusion at 20 °C; molecular replacement. The settings on record: both partners purified.

Data set [7] concerns the molecule itself. The experiment in a line: co-IP; two-step: anti-FLAG beads, elution with 3 x FLAG peptide, then GFP nanobody-conjugated beads, blot for Atg40-HA; wild-type cells; larger oligomers significantly decreased in atg1Δ, atg2Δ and atg8Δ cells.
Data set [8] concerns the molecule itself. The data set is described as follows: SEC-MALS; Atg40-6His solubilized in DDM; Superdex 200 increase 10/300 in 20 mM Tris-HCl pH 8.0, 150 mM NaCl, 0.03% DDM, room temperature. Background: SEC sorts molecules by how far they enter the pores of the column.
Another data set deals with LC3C WT (UniProt Q9BXW4 1-126). The data set is described as follows: ITC; peptide in the syringe (0.5 mM) titrated into 200 µl of the Atg8 homologue in the cell at a 10 times lower concentration; MicroCal iTC200, 25 °C, stirring at 1000 rpm; single-site binding model; N fixed to 1.0 when the fitting was not convergent due to weak interaction; errors are fitting errors. The settings on record: both partners purified.
Sequence of LC3C WT (Q9BXW4 1-126): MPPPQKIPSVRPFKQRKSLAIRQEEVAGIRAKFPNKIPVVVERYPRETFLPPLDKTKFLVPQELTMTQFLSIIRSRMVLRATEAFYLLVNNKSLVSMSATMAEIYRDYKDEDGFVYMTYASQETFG

For data set [9], the target named is T2, LC3A WT. The description is as above. Particulars: both partners purified. The source holds these as a separate data set.
The target in data set [10] is T4, GABARAPL2 WT. The data set is described as above. Particulars: both partners purified. The source holds these as a separate data set.
Data set [11] concerns the target T5, GABARAPL1 WT. The data set is described as above. The settings on record: both partners purified. This is another data set of the same source.
In the next data set the target is T7, Atg8 (1-116) K26P (S. cerevisiae, UniProt P38182 1-116, K26P).
T7 sequence (looked up): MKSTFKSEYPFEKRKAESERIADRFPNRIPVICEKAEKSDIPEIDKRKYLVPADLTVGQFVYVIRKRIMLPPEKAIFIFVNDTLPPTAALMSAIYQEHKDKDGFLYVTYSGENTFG
The experiment in a line: ITC; MicroCal iTC200, 25 °C; peptide in the syringe (FAM134B, SEC62, RTN3 0.5 mM; Atg40^234–252 2.0 mM; Atg40^237–252 1.8 mM), Atg8-family protein in the cell at 10 times lower concentration (1.8 mM Atg8 for Atg40^237–252 D243A D247A); 20 mM HEPES pH 6.8, 150 mM NaCl; single-site model; errors are fitting errors. Particulars: both partners purified.

Data set [12] concerns the target T3, LC3B WT (rat LC3B 1-120). The experiment in a line: ITC; peptide in the syringe (0.5 mM) titrated into 200 µl of the Atg8 homologue in the cell at a 10 times lower concentration; MicroCal iTC200, 25 °C, stirring at 1000 rpm; single-site binding model; N fixed to 1.0 when the fitting was not convergent due to weak interaction; errors are fitting errors. Particulars: both partners purified. This is another data set of the same source.

For data set [13], the target named is T1, GABARAP WT (human GABARAP 1-116). Described as above. The settings on record: both partners purified. The source holds these as a separate data set.

T1 sequence (O95166 1-116): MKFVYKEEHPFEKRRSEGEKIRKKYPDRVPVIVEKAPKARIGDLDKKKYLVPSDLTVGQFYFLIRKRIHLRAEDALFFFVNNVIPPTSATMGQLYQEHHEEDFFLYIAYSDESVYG
T4 sequence (P60520 whole entry): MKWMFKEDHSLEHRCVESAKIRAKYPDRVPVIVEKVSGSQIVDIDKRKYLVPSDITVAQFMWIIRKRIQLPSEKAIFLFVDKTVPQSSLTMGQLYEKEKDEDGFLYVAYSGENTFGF
T5 sequence (Q9H0R8 whole entry, the tested form may be a part): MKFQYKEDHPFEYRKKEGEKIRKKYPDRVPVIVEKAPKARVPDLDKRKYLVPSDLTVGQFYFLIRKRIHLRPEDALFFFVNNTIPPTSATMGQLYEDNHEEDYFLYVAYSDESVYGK

B1: RTN3245-264 peptide (peptide)
peptide: ESPFEVIIDKAAFDKEFKDSY
notes: numbers count on: isoform e; Tyr attached to the C terminus for quantification by absorbance at 280 nm; source: synthetic peptide
In the case of B1, the Kd (in general, a measure of binding affinity in units of concentration) turned out to be 5.03 µM in [1]; 17.2 µM with LC3A WT [2]; 28.8 µM with LC3B WT (rat LC3B 1-120) [3]; 17.4 µM with GABARAPL2 WT [4]; 5 µM with GABARAPL1 WT [5]. For the same molecule, the stoichiometry N (commonly the number of molecules, sites or subunits per partner or assembly) in data set [1] was 0.74 site; with LC3A WT [2], 0.55 site; in the data set with GABARAPL2 WT [4] it was 0.51 site; with GABARAPL1 WT [5], 0.81 site.

B2: Atg40^237–252 (in the crystallised Atg40^237–252-Atg8 fusion) (domain or fragment, S. cerevisiae, UniProt Q99325 237-252, looked up)
chain: EFPNDYDFMEDILDET
On to B2, for which the binding result in data set [6] is listed as “binds”.

B3: Atg40-HA (natural protein, S. cerevisiae, UniProt Q99325 1-256, looked up)
chain: MFNLILWPLFLLTSVAIPLQLTLEVVYLTSSVDFSKASAAKTATSLGQSPVVITIYKSLLKYWSLYEFIHFIYLYTPIDAFLNFLPFTSLLMSFGSICLTRELVYDFIAFMESQNKLTGFLNKITEPNFNSYLLFSSIYNIWFADDTNDKFLFGKLTQILISVTKRYEFPRTFYLAKVSDFLQNLILTRLRPFVTEQPQGDKNRYQNGDRESTKNGAAYQKSSQQSSSFEQNFTSTEFPNDYDFMEDILDETTELD
notes: Atg40, ER-phagy receptor of S. cerevisiae; also called Atg40-FLAG; Atg40-GFP; source: S. cerevisiae cells treated with rapamycin, in lysate
With B3, in [7], the “stoichiometry N” value was more than 2.

B4: Atg40-6His (natural protein, S. cerevisiae, UniProt Q99325 1-256, looked up)
chain: MFNLILWPLFLLTSVAIPLQLTLEVVYLTSSVDFSKASAAKTATSLGQSPVVITIYKSLLKYWSLYEFIHFIYLYTPIDAFLNFLPFTSLLMSFGSICLTRELVYDFIAFMESQNKLTGFLNKITEPNFNSYLLFSSIYNIWFADDTNDKFLFGKLTQILISVTKRYEFPRTFYLAKVSDFLQNLILTRLRPFVTEQPQGDKNRYQNGDRESTKNGAAYQKSSQQSSSFEQNFTSTEFPNDYDFMEDILDETTELD
notes: Atg40, S. cerevisiae; Atg40-6His is printed as 30.6 kDa; also called purified Atg40; source: S. cerevisiae BJ3505 (GPD promoter), purified from membranes in DDM (Ni-NTA, SEC)
With B4, the “stoichiometry N” value in data set [8] stood at 2.

B5: RTN3245-253 (Δhelix) peptide (peptide)
peptide: YESPFEVIID
notes: numbers count on: isoform e; also called RTN3245-253 WT (Δhelix); source: synthetic peptide
For the molecule B5, the dissociation constant (Kd) in [1] was 14 µM; with LC3A WT [2], 21.7 µM; in the data set with LC3B WT (rat LC3B 1-120) [3], 31.1 µM. Moreover, the “stoichiometry N” value in [1] was 0.82 site; with LC3A WT [2] it was 0.54 site; in the data set with LC3B WT (rat LC3B 1-120) [3] it was 0.91 site.

B6: SEC62361-368 (Δhelix) peptide (peptide)
peptide: NDFEMITKY
notes: SEC62, human, residues 361-368 (lacks the helix C-terminal to the AIM/LIR); Tyr attached to the C terminus for quantification by absorbance at 280 nm; also called Sec62361-368 WT (Δhelix); source: synthetic peptide (BEX Co., Ltd.), SEC
Regarding B6, the Kd was determined as 31.9 µM in the data set with LC3C WT, 54.6 µM with LC3A WT [9], 90.9 µM with GABARAPL2 WT [10] and 13.3 µM with GABARAPL1 WT [11]. The “stoichiometry N” value with LC3A WT [9] stood at 0.98 site; with GABARAPL1 WT [11], 0.99 site.

B7: Atg40^234–252 peptide (peptide, UniProt Q99325 234-252, looked up)
peptide: TSTEFPNDYDFMEDILDET
notes: Atg40, S. cerevisiae, residues 234-252; also called wild-type peptide; source: synthetic peptide (Liberty Blue peptide synthesizer), SEC
Molecule B7 had a Kd with Atg8 (1-116) K26P of 0.59 µM.

B8: SEC62355-376 WT peptide (peptide)
peptide: GPHSSGNGNDFEMITKEELEQQTDY
Consider B8, for which the equilibrium dissociation constant (Kd) with LC3C WT came out at 5.18 µM; with LC3A WT [9], 0.92 µM; with GABARAPL2 WT [10] it was 0.58 µM; with GABARAPL1 WT [11] it was 0.39 µM; with LC3B WT (rat LC3B 1-120) [12], 3.37 µM. Besides, the “stoichiometry N” value with LC3C WT stood at 0.46 site; with LC3A WT [9] it was 0.78 site; in the data set with GABARAPL2 WT [10] it was 0.78 site; in the data set with GABARAPL1 WT [11], 0.83 site; with LC3B WT (rat LC3B 1-120) [12] it was 0.74 site.

B9: SEC62355-376 I366A peptide (peptide)
peptide: GPHSSGNGNDFEMATKEELEQQTDY
As for B9, in data set [13], binding was characterised by a dissociation constant (Kd) of 14.5 µM and the “stoichiometry N” value turned out to be 0.87 site.
